According to the supplement of paper PMC9112550, “Optimization of the antimicrobial peptide Bac7 by deep mutational scanning” (BMC Biology, 2022):

The sequences below were run on Escherichia coli TOP10 (assay: shrunken log2 fold change of peptide-encoding DNA abundance (4.5 h post-induction vs induction); higher = less antimicrobial activity (less host growth inhibition)). Conditions: time post-induction: 4.5 h; library: site-saturation at positions 5, 18, 19, 20.
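Also: peptides expressed intracellularly from a pBAD plasmid library in pooled LB shake-flask culture, induced with 0.3% L-arabinose, DNA abundance read by NGS, three biological replicates, DESeq2 with apeglm shrinkage.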

Sequence | shrunken log2 fold change
RRIRPRPPRLPRPRPRPACFPRP | 0.45
RRIRWRPPRLPRPRPRPMPDPRP | 0.173
RRIRMRPPRLPRPRPRPASFPRP | 0.126
RRIRVRPPRLPRPRPRPDQHPRP | -0.0679
RRIRFRPPRLPRPRPRPRVCPRP | 0.152
RRIRRRPPRLPRPRPRPTVRPRP | -0.00514
RRIRDRPPRLPRPRPRPYEDPRP | 0.0115
RRIRRRPPRLPRPRPRPWKAPRP | 0.0256
RRIRDRPPRLPRPRPRPPKHPRP | 0.0331
RRIRDRPPRLPRPRPRPSRSPRP | 0.0199
RRIRFRPPRLPRPRPRPQMQPRP | 0.203
RRIRERPPRLPRPRPRPRHSPRP | -0.137
RRIRPRPPRLPRPRPRPGCNPRP | -0.124
RRIRFRPPRLPRPRPRPMASPRP | 0.037
RRIRIRPPRLPRPRPRPTCMPRP | -0.059
RRIRLRPPRLPRPRPRPYGFPRP | 0.00785
RRIRMRPPRLPRPRPRPVPQPRP | 0.7
RRIRYRPPRLPRPRPRPTQIPRP | -0.292
RRIRPRPPRLPRPRPRPQIAPRP | 0.115
RRIRWRPPRLPRPRPRPTKIPRP | 0.0922
RRIRERPPRLPRPRPRPFGAPRP | 0.143
RRIRARPPRLPRPRPRPWNVPRP | -0.181
RRIRVRPPRLPRPRPRPKMIPRP | -0.162
RRIRFRPPRLPRPRPRPSTAPRP | -0.0915
RRIRARPPRLPRPRPRPSAVPRP | 0.282

Sequence | shrunken log2 fold change
RRIRFRPPRLPRPRPRPHNIPRP | -0.501
RRIRSRPPRLPRPRPRPEVFPRP | 0.0779
RRIRPRPPRLPRPRPRPFSTPRP | -0.317
RRIRRRPPRLPRPRPRPYYCPRP | -0.132
RRIRWRPPRLPRPRPRPIAAPRP | 0.976
RRIRERPPRLPRPRPRPDCMPRP | -0.255
RRIRTRPPRLPRPRPRPWRVPRP | -0.00468
RRIRRRPPRLPRPRPRPGNDPRP | -0.0382
RRIRKRPPRLPRPRPRPIYWPRP | 0.165
RRIRQRPPRLPRPRPRPWTWPRP | -0.0328
RRIRWRPPRLPRPRPRPELTPRP | 0.772
RRIRARPPRLPRPRPRPLQAPRP | 0.674
RRIRHRPPRLPRPRPRPPIQPRP | 0.0855
RRIRYRPPRLPRPRPRPHCFPRP | -0.165
RRIRERPPRLPRPRPRPYAMPRP | -0.416
RRIRCRPPRLPRPRPRPRMFPRP | 0.0907
RRIRDRPPRLPRPRPRPAIYPRP | 0.00069
RRIRQRPPRLPRPRPRPIQYPRP | -0.151
RRIRRRPPRLPRPRPRPSVWPRP | 0.703
RRIRKRPPRLPRPRPRPQGRPRP | -0.078
RRIRLRPPRLPRPRPRPWILPRP | -0.0709
RRIRTRPPRLPRPRPRPWCVPRP | -0.212
RRIRTRPPRLPRPRPRPIKHPRP | -0.454
RRIRRRPPRLPRPRPRPYPAPRP | 0.0876
RRIRHRPPRLPRPRPRPPHKPRP | 0.0336

Sequence | shrunken log2 fold change
RRIRNRPPRLPRPRPRPDNIPRP | -0.312
RRIRVRPPRLPRPRPRPQIKPRP | -0.455
RRIRRRPPRLPRPRPRPDTNPRP | 1.31
RRIRMRPPRLPRPRPRPQSIPRP | -0.0553
RRIRLRPPRLPRPRPRPCDAPRP | -0.105
RRIRRRPPRLPRPRPRPPDNPRP | 0.548
RRIRWRPPRLPRPRPRPPWEPRP | 0.541
RRIRWRPPRLPRPRPRPFWSPRP | 0.284
RRIRRRPPRLPRPRPRPCGAPRP | 0.503
RRIRRRPPRLPRPRPRPVFVPRP | 0.292
RRIRCRPPRLPRPRPRPFCSPRP | -0.008
RRIRYRPPRLPRPRPRPTQDPRP | 0.542
RRIRHRPPRLPRPRPRPLSTPRP | -0.0859
RRIRARPPRLPRPRPRPPIHPRP | -0.11
RRIRHRPPRLPRPRPRPHVDPRP | 0.0392
RRIRLRPPRLPRPRPRPIPLPRP | 0.0264
RRIRERPPRLPRPRPRPLSRPRP | 0.00391
RRIRPRPPRLPRPRPRPCWSPRP | 0.0606
RRIRIRPPRLPRPRPRPIKCPRP | -0.446
RRIRDRPPRLPRPRPRPHACPRP | 0.00242
RRIRYRPPRLPRPRPRPDMQPRP | 0.0426
RRIRVRPPRLPRPRPRPEADPRP | 0.0974
RRIRKRPPRLPRPRPRPLHQPRP | 0.393
RRIRKRPPRLPRPRPRPQFDPRP | -0.0088
RRIRVRPPRLPRPRPRPPESPRP | 0.201

Sequence | shrunken log2 fold change
RRIRMRPPRLPRPRPRPVLIPRP | -0.0938
RRIRERPPRLPRPRPRPPYTPRP | -0.176
RRIRKRPPRLPRPRPRPKWKPRP | 0.479
RRIRRRPPRLPRPRPRPRLDPRP | 0.347
RRIRQRPPRLPRPRPRPQQAPRP | -0.0512
RRIRMRPPRLPRPRPRPHAAPRP | 1.63
RRIRNRPPRLPRPRPRPWMPPRP | -0.105
RRIRRRPPRLPRPRPRPTNFPRP | -0.125
RRIRKRPPRLPRPRPRPRSQPRP | 0.051
RRIRHRPPRLPRPRPRPTPYPRP | -0.0416
RRIRERPPRLPRPRPRPFSKPRP | -0.0819
RRIRYRPPRLPRPRPRPSKYPRP | -0.401
RRIRNRPPRLPRPRPRPLDNPRP | -0.263
RRIRTRPPRLPRPRPRPLELPRP | -0.176
RRIRPRPPRLPRPRPRPMCTPRP | 0.108
RRIRSRPPRLPRPRPRPEHVPRP | -0.191
RRIRKRPPRLPRPRPRPEVTPRP | -0.0421
RRIRNRPPRLPRPRPRPIPFPRP | -0.0196
RRIRLRPPRLPRPRPRPNCPPRP | -0.213
RRIRPRPPRLPRPRPRPQHQPRP | -0.226
RRIRDRPPRLPRPRPRPFRVPRP | -0.101
RRIRTRPPRLPRPRPRPLNKPRP | -0.225
RRIRPRPPRLPRPRPRPNWCPRP | 0.0235
RRIRCRPPRLPRPRPRPDFIPRP | -0.383
RRIRSRPPRLPRPRPRPFGNPRP | -0.00151

Sequence | shrunken log2 fold change
RRIRARPPRLPRPRPRPMDDPRP | 0.197
RRIRERPPRLPRPRPRPCVQPRP | -0.0665
RRIRNRPPRLPRPRPRPILGPRP | -0.00992
RRIRCRPPRLPRPRPRPHEFPRP | -0.267
RRIRKRPPRLPRPRPRPTILPRP | -0.0105
RRIRNRPPRLPRPRPRPQNHPRP | -0.685
RRIRLRPPRLPRPRPRPVTLPRP | -0.751
RRIRGRPPRLPRPRPRPEKYPRP | 0.172
RRIRFRPPRLPRPRPRPYIYPRP | -0.0532
RRIRARPPRLPRPRPRPCCEPRP | 0.512
RRIRYRPPRLPRPRPRPISEPRP | -0.0398
RRIRMRPPRLPRPRPRPGHPPRP | 0.196
RRIRFRPPRLPRPRPRPFDSPRP | -0.22
RRIRMRPPRLPRPRPRPNMFPRP | 0.0213
RRIRMRPPRLPRPRPRPYFMPRP | -0.898
RRIRKRPPRLPRPRPRPAWTPRP | 0.261
RRIRARPPRLPRPRPRPGRNPRP | 0.419
RRIRMRPPRLPRPRPRPGYIPRP | -0.0175
RRIRKRPPRLPRPRPRPEMHPRP | 0.0496
RRIRNRPPRLPRPRPRPDDPPRP | -0.0062
RRIRRRPPRLPRPRPRPNIGPRP | -0.89
RRIRQRPPRLPRPRPRPMEHPRP | 0.0112
RRIRFRPPRLPRPRPRPYPHPRP | -1.04
RRIRRRPPRLPRPRPRPTLYPRP | 0.595
RRIRCRPPRLPRPRPRPSMGPRP | -0.169

Sequence | shrunken log2 fold change
RRIRIRPPRLPRPRPRPHWRPRP | -0.101
RRIRHRPPRLPRPRPRPSTTPRP | -0.416
RRIRHRPPRLPRPRPRPVCMPRP | -0.0845
RRIRFRPPRLPRPRPRPVNSPRP | -0.154
RRIRMRPPRLPRPRPRPWMLPRP | 0.367
RRIRARPPRLPRPRPRPQIVPRP | -0.0292
RRIRHRPPRLPRPRPRPWGCPRP | -0.106
RRIRLRPPRLPRPRPRPRYQPRP | -0.0283
RRIRFRPPRLPRPRPRPRTDPRP | -0.0313
RRIRNRPPRLPRPRPRPTFNPRP | -0.506
RRIRPRPPRLPRPRPRPPFQPRP | 0.119
RRIRNRPPRLPRPRPRPSDLPRP | -0.256
RRIRKRPPRLPRPRPRPKDIPRP | -0.261
RRIRWRPPRLPRPRPRPYSYPRP | -0.00188
RRIRERPPRLPRPRPRPYWKPRP | -0.0866
RRIRWRPPRLPRPRPRPRYHPRP | -0.198
RRIRDRPPRLPRPRPRPYCWPRP | 0.085
RRIRLRPPRLPRPRPRPFNMPRP | -0.189
RRIRPRPPRLPRPRPRPGQDPRP | -0.0902
RRIRYRPPRLPRPRPRPNKEPRP | -0.0622
RRIRNRPPRLPRPRPRPVTDPRP | -0.013
RRIRERPPRLPRPRPRPDQQPRP | -0.278
RRIRNRPPRLPRPRPRPLLVPRP | -0.199
RRIRQRPPRLPRPRPRPGGQPRP | -0.137
RRIRSRPPRLPRPRPRPEALPRP | -0.0643
